Data on seven molecules can be found in patent publication US20220227866A1 (VELOSBIO, published 2022).

The labels stand for the following.
B1: Bispecific construct 20 (bispecific antibody, human IgG1, kappa)
heavy: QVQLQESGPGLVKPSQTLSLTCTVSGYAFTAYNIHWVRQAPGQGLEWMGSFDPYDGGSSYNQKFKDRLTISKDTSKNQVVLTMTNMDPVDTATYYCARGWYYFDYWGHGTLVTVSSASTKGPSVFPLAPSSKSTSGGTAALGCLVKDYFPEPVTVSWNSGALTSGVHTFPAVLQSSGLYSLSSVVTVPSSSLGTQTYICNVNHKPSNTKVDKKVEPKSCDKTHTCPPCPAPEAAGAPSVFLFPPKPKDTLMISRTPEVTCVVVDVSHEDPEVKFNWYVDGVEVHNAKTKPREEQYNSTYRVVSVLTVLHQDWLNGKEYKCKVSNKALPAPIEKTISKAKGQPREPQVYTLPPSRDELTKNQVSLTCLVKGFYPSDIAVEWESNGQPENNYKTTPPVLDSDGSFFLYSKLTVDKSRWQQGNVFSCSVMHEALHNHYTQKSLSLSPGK
light: EVQLVESGGGLVQPGGSLRLSCAASGFTFNTYAMNWVRQAPGKGLEWVARIRSKYNNYATYYADSVKGRFTISRDDSKNTLYLQMNSLRAEDTAVYYCVRHGNFGNSYVSYFAYWGQGTTVTVSSGGGGSGGGGSGGGGSGGGGSEIVVTQSPATLSVSPGERATLSCRSSTGAVTAANYANWVQEKPGQAFRGLIGGANKRAPGVPARFSGSLSGDEATLTISSLQSEDFAVYYCALFYSNLWVFGQGTKLEIKGGGGSGGGGSDIVMTQTPLSLPVTPGEPASISCRASKSISKYLAWYQQKPGQAPRLLIYSGSTLQSGIPPRFSGSGYGTDFTLTINNIESEDAAYYFCQQHDESPYTFGEGTKVEIKRTVAAPSVFIFPPSDEQLKSGTASVVCLLNNFYPREAKVQWKVDNALQSGNSQESVTEQDSKDSTYSLSSTLTLSKADYEKHKVYACEVTHQGLSSPVTKSFNRGEC
notes: valency 2/2
B2: Bispecific construct 18 (bispecific antibody, human IgG1, kappa)
heavy: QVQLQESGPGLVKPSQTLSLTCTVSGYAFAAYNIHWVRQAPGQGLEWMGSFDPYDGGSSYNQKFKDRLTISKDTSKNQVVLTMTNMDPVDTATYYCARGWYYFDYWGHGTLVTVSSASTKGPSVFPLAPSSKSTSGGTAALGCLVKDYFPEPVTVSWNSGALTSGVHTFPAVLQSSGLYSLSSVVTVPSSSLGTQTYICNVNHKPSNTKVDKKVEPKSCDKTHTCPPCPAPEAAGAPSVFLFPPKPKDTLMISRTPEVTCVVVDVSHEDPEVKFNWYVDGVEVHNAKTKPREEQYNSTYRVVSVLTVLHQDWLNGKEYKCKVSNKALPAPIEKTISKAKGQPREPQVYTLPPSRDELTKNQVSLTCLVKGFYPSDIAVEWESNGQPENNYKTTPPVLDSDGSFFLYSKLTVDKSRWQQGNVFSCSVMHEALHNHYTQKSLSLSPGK
light: DIVMTQTPLSLPVTPGEPASISCRASKSISKYLAWYQQKPGQAPRLLIYSGSTLQSGIPPRFSGSGYGTDFTLTINNIESEDAAYYFCQQHDESPYTFGEGTKVEIKRTVAAPSVFIFPPSDEQLKSGTASVVCLLNNFYPREAKVQWKVDNALQSGNSQESVTEQDSKDSTYSLSSTLTLSKADYEKHKVYACEVTHQGLSSPVTKSFNRGECGGGGSGGGGSEVQLVESGGGLVQPGGSLRLSCAASGFTFNTYAMNWVRQAPGKGLEWVARIRSKYNNYATYYADSVKGRFTISRDDSKNTLYLQMNSLRAEDTAVYYCVRHGNFGNSYVSYFAYWGQGTTVTVSSGGGGSGGGGSGGGGSGGGGSEIVVTQSPATLSVSPGERATLSCRSSTGAVTAANYANWVQEKPGQAFRGLIGGANKRAPGVPARFSGSLSGDEATLTISSLQSEDFAVYYCALFYSNLWVFGQGTKLEIK
notes: anti-CD3 scFv Ab10; valency 2/2
B3: Bispecific construct 16 (bispecific antibody, human IgG1, kappa)
heavy 1: not shown
heavy 2: EVQLVESGGGLVQPGGSLRLSCAASGFTFNTYAMNWVRQAPGKGLEWVARIRSKYNNYATYYADSVKGRFTISRDDSKNTLYLQMNSLRAEDTAVYYCVRHGNFGNSYVSYFAYWGQGTTVTVSSGGGGSGGGGSGGGGSGGGGSEIVVTQSPATLSVSPGERATLSCRSSTGAVTAANYANWVQEKPGQAFRGLIGGANKRAPGVPARFSGSLSGDEATLTISSLQSEDFAVYYCALFYSNLWVFGQGTKLEIKEPKSSDKTHTCPPCPAPEAAGAPSVFLFPPKPKDTLMISRTPEVTCVVVDVSHEDPEVKFNWYVDGVEVHNAKTKPREEQYNSTYRVVSVLTVLHQDWLNGKEYKCKVSNKALPAPIEKTISKAKGQPREPQVYTLPPSRDELTKNQVSLSCAVKGFYPSDIAVEWESNGQPENNYKTTPPVLDSDGSFFLVSKLTVDKSRWQQGNVFSCSVMHEALHNHYTQKSLSLSPGK
light: DIVMTQTPLSLPVTPGEPASISCRASKSISKYLAWYQQKPGQAPRLLIYSGSTLQSGIPPRFSGSGYGTDFTLTINNIESEDAAYYFCQQHDESPYTFGEGTKVEIKRTVAAPSVFIFPPSDEQLKSGTASVVCLLNNFYPREAKVQWKVDNALQSGNSQESVTEQDSKDSTYSLSSTLTLSKADYEKHKVYACEVTHQGLSSPVTKSFNRGEC
notes: anti-CD3 scFv Ab10; valency 1/1
B4: Bispecific construct 17 (bispecific antibody, human IgG1, kappa)
heavy 1: not shown
heavy 2: B3 heavy 2 with G44C, Q248C
light: B3 light
notes: disulfide-stabilized anti-CD3 scFv Ab10; valency 1/1
B5: control 1 (bispecific antibody)
polypeptide, role not told 1: QLVLTQSPSASASLGSSVKLTCTLSSGHKTDTIDWYQQQPGKAPRYLMKLEGSGSYNKGSGVPDRFSGSSSGADWYLTISSLQSEDEADYYCGTDYPGNYLFGGGTQLTVLGGGGSGGGGEVQLVESGGGLVQPGGSLRLSCAASGFTFSTYAMNWVRQAPGKGLEWVGRIRSKYNNYATYYADSVKGRFTISRDDSKNSLYLQMNSLKTEDTAVYYCVRHGNFGNSYVSWFAYWGQGTLVTVSSASTKGEVAACEKEVAALEKEVAALEKEVAALEKGGGDKTHTCPPCPAPEAAGGPSVFLFPPKPKDTLMISRTPEVTCVVVDVSHEDPEVKFNWYVDGVEVHNAKTKPREEQYNSTYRVVSVLTVLHQDWLNGKEYKCKVSNKALPAPIEKTISKAKGQPREPQVYTLPPSREEMTKNQVSLWCLVKGFYPSDIAVEWESNGQPENNYKTTPPVLDSDGSFFLYSKLTVDKSRWQQGNVFSCSVMHEALHNHYTQKSLSLSPGK
polypeptide, role not told 2: QAVVTQEPSLTVSPGGTVTLTCRSSTGAVTTSNYANWVQQKPGQAPRGLIGGTNKRAPWTPARFSGSLLGGKAALTITGAQAEDEADYYCALWYSNLWVFGGGTKLTVLGGGGSGGGGQEQLVESGGGLVQPGGSLRLSCAASGFTFSDYYMSWIRQAPGKGLEWVATIYPSSGKTYYADSAKGRLTISSDNAKDSLYLQMNSLRAEDTAVYYCTRDSYADDAALFDIWGQGTTVTVSSASTKGKVAACKEKVAALKEKVAALKEKVAALKE
polypeptide, role not told 3: not shown
B6: Bispecific construct 12 (bispecific antibody, human IgG1, kappa)
heavy: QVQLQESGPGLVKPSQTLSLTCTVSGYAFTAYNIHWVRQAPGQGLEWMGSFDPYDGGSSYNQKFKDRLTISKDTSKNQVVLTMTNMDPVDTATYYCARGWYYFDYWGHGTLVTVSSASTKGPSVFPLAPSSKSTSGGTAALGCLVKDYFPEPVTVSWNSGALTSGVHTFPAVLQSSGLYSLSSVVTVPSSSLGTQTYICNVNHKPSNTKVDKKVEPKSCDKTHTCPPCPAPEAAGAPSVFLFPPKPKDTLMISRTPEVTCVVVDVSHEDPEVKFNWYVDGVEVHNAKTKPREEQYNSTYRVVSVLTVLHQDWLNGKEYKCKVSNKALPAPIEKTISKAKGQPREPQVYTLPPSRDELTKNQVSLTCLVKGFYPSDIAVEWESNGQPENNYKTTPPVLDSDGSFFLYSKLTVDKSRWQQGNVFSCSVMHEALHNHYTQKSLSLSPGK
light: B2 light with G268C, Q472C
notes: disulfide-stabilized anti-CD3 scFv Ab10; ROR1 arm Ab1; valency 2/2
B7: Bispecific construct 19 (bispecific antibody, human IgG1, kappa)
heavy 1: not shown
heavy 2: EVQLVESGGGLVQPGGSLRLSCAASGFTFNTYAMNWVRQAPGKGLEWVARIRSKYNNYATYYADSVKGRFTISRDDSKNTLYLQMNSLRAEDTAVYYCVRHGNFGNSYVSYFAYWGQGTTVTVSSGGGGSGGGGSGGGGSGGGGSEIVVTQSPATLSVSPGERATLSCRSSTGAVTAANYANWVQEKPGQAFRGLIGGANKRAPGVPARFSGSLSGDEATLTISSLQSEDFAVYYCALFYSNLWVFGQGTKLEIKGGGGSGGGGSQVQLQESGPGLVKPSQTLSLTCTVSGYAFTAYNIHWVRQAPGQGLEWMGSFDPYDGGSSYNQKFKDRLTISKDTSKNQVVLTMTNMDPVDTATYYCARGWYYFDYWGHGTLVTVSSASTKGPSVFPLAPSSKSTSGGTAALGCLVKDYFPEPVTVSWNSGALTSGVHTFPAVLQSSGLYSLSSVVTVPSSSLGTQTYICNVNHKPSNTKVDKKVEPKSCDKTHTCPPCPAPEAAGAPSVFLFPPKPKDTLMISRTPEVTCVVVDVSHEDPEVKFNWYVDGVEVHNAKTKPREEQYNSTYRVVSVLTVLHQDWLNGKEYKCKVSNKALPAPIEKTISKAKGQPREPQVYTLPPSRDELTKNQVSLSCAVKGFYPSDIAVEWESNGQPENNYKTTPPVLDSDGSFFLVSKLTVDKSRWQQGNVFSCSVMHEALHNHYTQKSLSLSPGK
light: B3 light
notes: CD3 valency 1, ROR1 valency 2

Changes are numbered by the printed parent chain. Values joined by “and” are separate entries in the source; they are usually repeats but may differ in a detail not shown here. Equal entries are not always repeated.

Sequence of human ROR1 on cells (Q01973 30-937 limits assumed): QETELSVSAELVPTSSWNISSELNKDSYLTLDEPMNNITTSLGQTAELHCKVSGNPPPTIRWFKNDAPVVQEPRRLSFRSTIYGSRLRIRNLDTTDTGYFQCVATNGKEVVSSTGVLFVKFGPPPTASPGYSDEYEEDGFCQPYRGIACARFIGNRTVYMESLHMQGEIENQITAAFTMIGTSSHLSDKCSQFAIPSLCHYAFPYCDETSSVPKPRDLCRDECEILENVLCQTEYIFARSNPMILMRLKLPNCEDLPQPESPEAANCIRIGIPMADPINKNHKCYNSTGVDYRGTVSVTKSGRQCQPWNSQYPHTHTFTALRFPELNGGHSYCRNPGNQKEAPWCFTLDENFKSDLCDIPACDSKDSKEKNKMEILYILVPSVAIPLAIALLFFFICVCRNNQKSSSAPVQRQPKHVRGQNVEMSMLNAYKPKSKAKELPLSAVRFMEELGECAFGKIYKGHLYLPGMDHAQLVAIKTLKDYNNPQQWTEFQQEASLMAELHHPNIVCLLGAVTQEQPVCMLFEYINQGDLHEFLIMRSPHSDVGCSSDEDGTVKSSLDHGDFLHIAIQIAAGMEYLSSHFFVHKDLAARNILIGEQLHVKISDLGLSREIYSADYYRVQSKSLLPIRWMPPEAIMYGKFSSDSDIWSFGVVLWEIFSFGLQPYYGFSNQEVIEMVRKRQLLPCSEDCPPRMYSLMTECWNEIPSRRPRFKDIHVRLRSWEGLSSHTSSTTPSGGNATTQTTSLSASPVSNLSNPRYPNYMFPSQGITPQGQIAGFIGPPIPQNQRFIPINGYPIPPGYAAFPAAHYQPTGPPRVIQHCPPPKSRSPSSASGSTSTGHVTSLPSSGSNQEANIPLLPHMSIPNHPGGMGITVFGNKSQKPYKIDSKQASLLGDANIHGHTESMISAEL
T2 sequence (Q01973 30-406 limits assumed): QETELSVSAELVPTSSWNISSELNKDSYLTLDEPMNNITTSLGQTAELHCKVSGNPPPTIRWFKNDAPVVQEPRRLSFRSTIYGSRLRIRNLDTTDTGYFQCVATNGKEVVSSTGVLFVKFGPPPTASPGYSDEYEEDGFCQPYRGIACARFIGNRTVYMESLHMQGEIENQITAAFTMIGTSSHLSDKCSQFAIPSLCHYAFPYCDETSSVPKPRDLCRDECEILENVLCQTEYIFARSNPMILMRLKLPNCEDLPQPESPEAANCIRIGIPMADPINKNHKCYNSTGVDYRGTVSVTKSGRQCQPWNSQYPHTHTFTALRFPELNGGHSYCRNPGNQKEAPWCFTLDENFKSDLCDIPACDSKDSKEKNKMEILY

The first assay addresses human ROR1 on cells (human, UniProt Q01973 30-937). The assay is described as follows: cell-based or functional assay.
B1: the “EC50, LDH release, ROR1-transfected MEC” value was 1.8 ng/mL and 9 pM; the “Max. LDH Release, ROR1-transfected MEC” value worked out at 37%.
Consider B2, for which the “EC50, LDH release, ROR1-transfected MEC” value was 3.5 ng/mL and 17 pM; the “Max. LDH Release, ROR1-transfected MEC” value stood at 34%.

For a further assay, the target named is T1, human CD3 on Jurkat cells (human, UniProt P09693 23-182; P04234 22-171; P07766 23-207).
T1 construct: GenBank NP_000064.1, NP_000723.1, NP_000724.1
T1 sequence (P09693 23-182 limits assumed, chain 1 of 3): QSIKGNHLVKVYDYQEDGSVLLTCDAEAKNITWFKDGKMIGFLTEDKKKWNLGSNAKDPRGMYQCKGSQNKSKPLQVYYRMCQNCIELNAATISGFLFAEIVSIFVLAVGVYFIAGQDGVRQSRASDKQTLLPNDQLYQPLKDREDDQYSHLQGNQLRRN
T1 sequence (P04234 22-171 limits assumed, chain 2 of 3): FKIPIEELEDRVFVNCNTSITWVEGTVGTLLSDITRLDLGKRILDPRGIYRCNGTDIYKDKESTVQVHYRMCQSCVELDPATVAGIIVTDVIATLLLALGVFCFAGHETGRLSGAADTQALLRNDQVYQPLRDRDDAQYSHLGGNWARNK
T1 sequence (P07766 23-207 limits assumed, chain 3 of 3): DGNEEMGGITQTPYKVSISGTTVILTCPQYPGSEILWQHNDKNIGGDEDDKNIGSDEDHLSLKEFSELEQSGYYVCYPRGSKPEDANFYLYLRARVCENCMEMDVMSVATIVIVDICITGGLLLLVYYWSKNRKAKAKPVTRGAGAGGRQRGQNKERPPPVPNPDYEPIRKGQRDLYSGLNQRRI
The assay is described as follows: flow cytometry on Jurkat cells. The method, then: To quantitate CD3 binding, 2.5E5 Jurkat cells were used for each condition. A 2× stock of the cells was made by resuspending the cells to 5E6/mL by placing in 50 μL of PBS with 2% FBS. Next, the cells were diluted with an equal volume of 2× stock of the test bispecific binding molecule. The cells and antibody were co-incubated on ice for 20 min. The cells were then washed 3 times with 300 μL of FACS buffer and were resuspended in 100 μL of goat anti-human Fc-PE conjugate antibody (Invitrogen cat. #12499882) at 1:500 dilution and incubated on ice with reduced light for 20 min. The cells were then washed 3 times with 300 μL of FACS buffer and fixed with 2% paraformaldehyde for 10 min at 25° C. The cells were washed 2 times with 300 μL of FACS buffer and analyzed on a Miltenyi MACSQuant Analyzer.
In the case of B3, the binding result is given as “binds”.
In the case of B4, the binding result was “binds”.
Still for that read-out and setting: the value for B5 was “binds”.
The same measure, in the same setting: next, B6: “binds”; B2: “binds”.

A further assay has as its target T2, recombinant human ROR1 extracellular domain (human, UniProt Q01973 30-406).
T2 construct: Bought (Acro Biosystems cat. R01-H522Y); whole entry named; also called ROR1-ECD; immobilized ROR1
The experiment in a line: ELISA, immobilised ROR1 ECD, construct titrated. The method, then: A 96-well Costar-3366 plate was coated with 50 μL/well of 2 μg/mL […] (Acro Biosystems cat. #R01-H522Y) in PBS overnight at 4° C. The plate was rinsed once with PBS containing 0.05% Tween 20 (PBS-T) and blocked with 100 μL/well of 5% non-fat milk in PBS (5% M-P) for 1 h at 25° C. Antibody samples were serially diluted 2-fold using 5% M-P and were incubated for 1 h at 25° C. (50 μL/well). The plate was washed three times with PBS-T and 50 μL/well anti-human kappa, HRP conjugate (Southern Biotech cat. #2060-05) diluted 10,000-fold in 5% M-P was added for 1 h at 25° C. The plate was washed three times with PBS-T, developed with 50 μL/well 1-Step Ultra TMB-ELISA (Thermo Scientific cat. #34028). The reaction was terminated by the addition of 2 N H₂SO₄ and the A450 was determined using a Spectramax plate reader.
Next, the binding of bispecific binding molecules to ROR was characterized by ELISA using recombinantly-expressed extracellular domain of RORL. ROR was immobilized on a microtiter plate, the bispecific binding molecules were titrated, and binding was quantitated with an anti-human kappa-HRP reagent. Consistent with the cell binding data, all constructs bound ROR1 in a concentration-dependent manner (FIG. 6). Moreover, monovalent ROR1 constructs 13-15 bound less tightly than all but two of the bivalent constructs.
Regarding B6, the dissociation constant Kd is 116 pM.

In a further assay the target is T3, soluble biotinylated human ROR1 extracellular domain (human, UniProt Q01973 30-406, biotinylated with EZ-Link Sulfo-NHS-LC-Biotin at a 1:5 molar ratio).
T3 construct: Acro Biosystems cat; whole entry named; also called b-ROR1; soluble b-ROR1
T3 sequence (Q01973 30-406 limits assumed): as the sequence (Q01973 30-406 limits assumed) above
The assay is described as follows: ELISA, captured construct, biotinylated ROR1 titrated. The method, then: To measure the binding of bispecific constructs to soluble ROR1, a 96-well Costar-3366 plate was coated with 50 μL/well of 2 μg/mL goat anti-human kappa (Southern Biotech cat. #2060-01) in PBS overnight at 4° C. The plate was rinsed once with PBS-T, blocked with 100 μL/well 5% M-P for 1 h at 25° C., rinsed once with PBS-T, and 2 μg/mL of the bispecific binding molecule was added and incubated for 1 h at 25° C. The plate was washed three times with PBS-T. Biotinylated ROR1 was diluted serially, 3-fold in 5% M-P and was incubated for 1 h at 25° C. (50 μL/well). The plate was washed three times with PBS-T. To detect the binding of b-ROR1, 50 μL/well Neutravidin-HRP (Pierce cat. #31030) diluted 1:5000 in 1% BSA-PBS was added for 1 h at 25° C. The plate was washed three times with PBS-T, then developed with 50 μL/well 1-Step Ultra TMB-ELISA (Thermo Scientific cat. #34028). The reaction was terminated by the addition of 2 N H₂SO₄ and the A450 was determined using a Spectramax plate reader.
The stronger binding observed with bivalent constructs versus monovalent constructs in cell assays and ELISAs in which the antigen is immobilized is consistent with an avidity effect. To determine if this was the case, binding to soluble monomeric ROR1 was assessed by immobilizing the bispecific binding molecules on a microtiter plate coated with goat anti-human kappa antibody and titrating biotinylated RORL. All bispecific binding molecules were active in this format (FIG. 7), and in most cases, there were no notable differences between monovalent and bivalent constructs.
For the molecule B1, the Kd was 366 pM.
Still for that read-out and setting: next, B3: 57 pM; B7: 200 pM; B4: 68 pM.
As for B6, the Kd turned out to be 86 pM.
On the same count and under the same terms, next, B2: 48 pM.
